This is an account of results in publication PMC6179307 (2018).

First the molecules themselves.
B1: RPT-6::VC155 [C. elegans] / ELT-2::VN173 [C. elegans] (parent complex)
chain 1: MAPPASTASSADPSKPTAQKLTEESDEKTLRKYFSTKVDDAQQKVADKSQNVRRLQAQRNELNTKVRMLKEELQQLHEQGSYVGEVSKAMDKKKVLVKVHPEGKYVVDVDKSIDINSLNTGARVALRADSYALHKLLPNKVDPLVSLMMVEKVPDSTYEMVGGLDKQIKEIKEVIELPVKHPELFDALGIAQPKGVLLFGPPGTGKTLLARAVAHHTECTFIRVSGSELVQKFIGEGARMVRELFVMAREHAPSIIFMDEIDSIGSSRVEGSSGGDSEVQRTMLELLNQLDGFEATKNIKVIMATNRIDILDPALLRPGRIDRKIEFPAPDEKARADILKIHSRKMNLMRGINMAKIAEQIPGASGAEVKSVCTEAGMFALRERRIHVTQEDFEMAVGKVMQKDSEKNMSIKKLWK
chain 2: MDNNYNDNVNGWAEMEPSQPMGGLRLPTQNMDPPEQNNESQLSELPRMKIDNDYASPIERQSVITSGTNNYEPKVETVTSFFHTGIDYSNFGMLDQTTMQPFYPLYSGIPVNTLGTFSGYTNSIYDKPSLYDPSIPTINIPSTYPTVAPTYECVKCSQSCGAGMKAVNGGMMCVNCSTPKTTYSPPVAYSTSLGQPPILEIPSEQPTAKIAKQSSKKSSSSNRGSNGSASRRQGLVCSNCNGTNTTLWRRNAEGDPVCNACGLYFKLHHIPRPTSMKKEGALQTRKRKSKSGDSSTPSTSRARERKFERASSSTEKAQRSSNRRAGSAKADRELSTAAVAAATATYVSHADLYPVSSAAVTLPDQTYSNYYQWNTAATAGLMMVPNDQNYVYAATNYQTGLRPADNIQVHVMPVQDDETKAAARDLEAVDGDS

The assay covers variants of B1. The experiment in a line: bimolecular fluorescence complementation (BiFC) in vivo, quantified with Copas Biosort; three independent experiments combined, minimum of 399 animals in each case; fluorescence observed twelve hours after heat shock; parent: 750; read off a plot.
As for chain 1 MAPPASTASSADPSKPTAQKLTEESDEKTLRKYFSTKVDDAQQKVADKSQNVRRLQAQRNELNTKVRMLKEELQQLHEQGSYVGEVSKAMDKKKVLVKVHPEGKYVVDVDKSIDINSLNTGARVALRADSYALHKLLPNKVDPLVSLMMVEKVPDSTYEMVGGLDKQIKEIKEVIELPVKHPELFDALGIAQPKGVLLFGPPGTGRTLLARAVAHHTECTFIRVSGSELVQKFIGEGARMVRELFVMAREHAPSIIFMDEIDSIGSSRVEGSSGGDSEVQRTMLELLNQLDGFEATKNIKVIMATNRIDILDPALLRPGRIDRKIEFPAPDEKARADILKIHSRKMNLMRGINMAKIAEQIPGASGAEVKSVCTEAGMFALRERRIHVTQEDFEMAVGKVMQKDSEKNMSIKKLWK [chain 1 K206R], the response is about 390 Fluorescence/TOF.
